Measured values published in paper doi:10.1101/2022.01.06.475303 (bioRxiv, 2022).

Biological target: SARS-CoV-2 receptor binding domain (RBD), Wuhan-1 (SARS-CoV-2 Wuhan-Hu-1, UniProt P0DTC2)
Assay: SPR

B1: eCC12.1.7 IgG (antibody, V domains shown)
VH: EVQLVESGGGLIQPGGSLRLSCAASGLTVSSNYMTWVRQAPGKGLEWVSVIYAGGSTFYADSVKGRFTISRDNSKNTLYLQMNSLRAEDTAVYYCARDLDVYGVDVWGQGTTVTVSS
VL: DIQLTQSPSFLSASVGDRVTITCRASQGISRYLAWYQQKPGKAPKLLIYAASTLQYGVPSRFSGSGSGTEFTLTISSLQPEDFATYYCQQLNSYPPKYTFGPGTKVEIK
binding result: binds
